This is an account of results in publication PMC3335016, “Analysis of the Nse3/MAGE-Binding Domain of the Nse4/EID Family Proteins” (PLoS ONE, 2012).

Where only a bound is given, the exact number is not on record here.

Common to all, as to test: ELISA; PEPSCAN ELISA; biotinylated EID2 peptides (400 nM) on streptavidin-coated plates; His-S-MAGEC2(129-339) 200–400 nM, 4°C overnight; anti-His detection
What all share (settings): both partners purified

For assay [1], the target named is T1, EID2 peptide #14 (F210A) (human, F210A (stands in the printed letters), biotin, linked via the SGSG spacer).
T1 construct: source: synthetic peptide (Mimotopes)
T1 peptide: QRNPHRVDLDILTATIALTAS

The target of assay [2] is T2, EID2 peptide #11 (I207A) (human, I207A (stands in the printed letters), biotin, linked via the SGSG spacer).
T2 construct: source: synthetic peptide (Mimotopes)
T2 peptide: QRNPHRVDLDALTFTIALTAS

Assay [3] has as its target T3, EID2 peptide #19 (S217A) (human, S217A (stands in the printed letters), biotin, linked via the SGSG spacer).
T3 construct: source: synthetic peptide (Mimotopes)
T3 peptide: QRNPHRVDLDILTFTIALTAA

In assay [4] the target is T4, EID2 peptide #1 (Q197A) (human, Q197A (stands in the printed letters), biotin, linked via the SGSG spacer).
T4 construct: source: synthetic peptide (Mimotopes)
T4 peptide: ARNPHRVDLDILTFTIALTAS

The target in assay [5] is T5, EID2 peptide #16 (I212A) (human, I212A (stands in the printed letters), biotin, linked via the SGSG spacer).
T5 construct: source: synthetic peptide (Mimotopes)
T5 peptide: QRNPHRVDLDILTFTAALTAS

For assay [6], the target named is T6, EID2 peptide #12 (L208A) (human, L208A (stands in the printed letters), biotin, linked via the SGSG spacer).
T6 construct: source: synthetic peptide (Mimotopes)
T6 peptide: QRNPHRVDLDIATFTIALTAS

In assay [7] the target is T7, EID2 peptide #9 (L205A) (human, L205A (stands in the printed letters), biotin, linked via the SGSG spacer).
T7 construct: source: synthetic peptide (Mimotopes)
T7 peptide: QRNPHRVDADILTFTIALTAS

Assay [8] deals with T8, EID2 peptide #6 (R202A) (human, R202A (stands in the printed letters), biotin, linked via the SGSG spacer).
T8 construct: source: synthetic peptide (Mimotopes)
T8 peptide: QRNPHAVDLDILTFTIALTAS

The target of assay [9] is T9, EID2 peptide #10 (D206A) (human, D206A (stands in the printed letters), biotin, linked via the SGSG spacer).
T9 construct: source: synthetic peptide (Mimotopes)
T9 peptide: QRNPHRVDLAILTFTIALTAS

Assay [10] concerns the target T10, EID2 peptide #2 (R198A) (human, R198A (stands in the printed letters), biotin, linked via the SGSG spacer).
T10 construct: source: synthetic peptide (Mimotopes)
T10 peptide: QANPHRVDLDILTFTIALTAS

The target in assay [11] is T11, EID2 peptide #18 (T215A) (human, T215A (stands in the printed letters), biotin, linked via the SGSG spacer).
T11 construct: source: synthetic peptide (Mimotopes)
T11 peptide: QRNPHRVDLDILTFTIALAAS

Assay [12] deals with T12, EID2 peptide #17 (L214A) (human, L214A (stands in the printed letters), biotin, linked via the SGSG spacer).
T12 construct: source: synthetic peptide (Mimotopes)
T12 peptide: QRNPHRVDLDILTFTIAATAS

B1: His-S-MAGEC2(129-339) (domain or fragment, human, UniProt Q9UBF1 129-339, looked up)
chain: GLPDSESSFTYTLDEKVAELVEFLLLKYEAEEPVTEAEMLMIVIKYKDYFPVILKRAREFMELLFGLALIEVGPDHFCVFANTVGLTDEGSDDEGMPENSLLIIILSVIFIKGNCASEEVIWEVLNAVGVYAGREHFVYGEPRELLTKVWVQGHYLEYREVPHSSPPYYEFLWGPRAHSESIKKKVLEFLAKLNNTVPSSFPSWYKDALKD
notes: source: E. coli C41, purified (His-TRAP column, FPLC)
As for B1, the “percent of WT affinity” value in assay [1], in assay [5], in [8], in [10] and in assay [12] was < 20 % of WT affinity in each case. In addition, the “percent of wt binding affinity” value in [2], in assay [3], in [4], in assay [6], in [7] and in [9] was ~30 % of wt each time. Further, the “percent of wt binding affinity” value in assay [11] is ~30 % of wt.
